{"source": "patent US20110053831A1", "molecular_target": "JUN1 fragment of c-Jun (UniProt P05412)", "assay": "cell-based or functional assay", "data": [{"binder": "RSDYKDDDDKAYQSM", "note": "[SEQ ID NO 26]", "values": [{"measurement": "decrease in growth of yeast on HTU media (reverse two-hybrid)", "value": "> 50", "unit": "%"}]}, {"binder": "SEQ ID NO 44 (peptide) peptide: RSDYKDDDDKKDSIRRRGENISSQEVEAVLMSHPEVVNAAVYPVRGDLPGD", "values": [{"measurement": "decrease in growth of yeast on HTU media (reverse two-hybrid)", "value": "> 50", "unit": "%"}]}, {"binder": "RSDYKDDDDKLYQSLLTATKELLFVAPVAKAFTSCD", "note": "[SEQ ID NO 46]", "values": [{"measurement": "decrease in growth of yeast on HTU media (reverse two-hybrid)", "value": "> 50", "unit": "%"}]}, {"binder": "RSDYKDDDDKAYQSISFLSQ", "note": "[SEQ ID NO 48]", "values": [{"measurement": "decrease in growth of yeast on HTU media (reverse two-hybrid)", "value": "> 50", "unit": "%"}]}, {"binder": "SEQ ID NO 50 (peptide) peptide: RSDYKDDDDKKDSIRRRGENISSQEVEAVLMSHPEVVNAAVYPVRGDLPGD", "values": [{"measurement": "decrease in growth of yeast on HTU media (reverse two-hybrid)", "value": "> 50", "unit": "%"}]}, {"binder": "RSDYKDDDDNTPHSSDGHNNP", "note": "[SEQ ID NO 52]", "values": [{"measurement": "decrease in growth of yeast on HTU media (reverse two-hybrid)", "value": "> 50", "unit": "%"}]}, {"binder": "RSDYKDDDDKAYQSINSSPVLPENSQELSLHLKQHVTKS", "note": "[SEQ ID NO 54]", "values": [{"measurement": "decrease in growth of yeast on HTU media (reverse two-hybrid)", "value": "> 50", "unit": "%"}]}, {"binder": "RSDYKDDDDKAYQSIRSGGIESSSKRER", "note": "[SEQ ID NO 56]", "values": [{"measurement": "decrease in growth of yeast on HTU media (reverse two-hybrid)", "value": "> 50", "unit": "%"}]}, {"binder": "RSDYKDDDDKGLQGRRRQGYQSIKP", "note": "[SEQ ID NO 58]", "values": [{"measurement": "decrease in growth of yeast on HTU media (reverse two-hybrid)", "value": "> 50", "unit": "%"}]}, {"binder": "RSDYKDDDDKGLQGRRQPGQQPQGRWSGRALPAHR", "note": "[SEQ ID NO 60]", "values": [{"measurement": "decrease in growth of yeast on HTU media (reverse two-hybrid)", "value": "> 50", "unit": "%"}]}, {"binder": "RSDYKDDDDKGLQGRRQPGQQPQGRWSGRALPAHR", "note": "[SEQ ID NO 62]", "values": [{"measurement": "decrease in growth of yeast on HTU media (reverse two-hybrid)", "value": "> 50", "unit": "%"}]}, {"binder": "RSDYKDDDDKAYQSKRL", "note": "[SEQ ID NO 28]", "values": [{"measurement": "decrease in growth of yeast on HTU media (reverse two-hybrid)", "value": "> 50", "unit": "%"}]}, {"binder": "SEQ ID NO 64 (peptide) peptide: RSDYKDDDDKAYQSISLAGYHGDTSRTFLVGSVSATARKLVEATQETMIDYTCRRRPCSLTWYQLMHRYRY", "values": [{"measurement": "decrease in growth of yeast on HTU media (reverse two-hybrid)", "value": "> 50", "unit": "%"}]}, {"binder": "SEQ ID NO 66 (peptide) peptide: RSDYKDDDDKAYQSIMAVAAQQPVAFLVGRQRRRGQVGIDSGDQHLRTPLFHELCRRRPCSLAWYQLMHRYRY", "values": [{"measurement": "decrease in growth of yeast on HTU media (reverse two-hybrid)", "value": "> 50", "unit": "%"}]}, {"binder": "RSDYKDDDDKAYQSISVVVVLVV", "note": "[SEQ ID NO 68]", "values": [{"measurement": "decrease in growth of yeast on HTU media (reverse two-hybrid)", "value": "> 50", "unit": "%"}]}, {"binder": "RSDYKDDDDKANQLPKILAGRLIFIKC", "note": "[SEQ ID NO 70]", "values": [{"measurement": "decrease in growth of yeast on HTU media (reverse two-hybrid)", "value": "> 50", "unit": "%"}]}, {"binder": "SEQ ID NO 72 (peptide) peptide: RSDYKDDDDKAYQSIIGAGKSTLIKALTGVYHADRGTIWLEGQAISPKNTAHAQQCRRRPCSLTWYQLMHRYRY", "values": [{"measurement": "decrease in growth of yeast on HTU media (reverse two-hybrid)", "value": "> 50", "unit": "%"}]}, {"binder": "RSDYKDDDDKAYQSIIANEEEREKNFASSKKDGSYTDLL", "note": "[SEQ ID NO 30]", "values": [{"measurement": "decrease in growth of yeast on HTU media (reverse two-hybrid)", "value": "> 50", "unit": "%"}]}, {"binder": "RSDYKDDDDKAYQESTKALVEGGADLILIETVLVVVVLVV", "note": "[SEQ ID NO 32]", "values": [{"measurement": "decrease in growth of yeast on HTU media (reverse two-hybrid)", "value": "> 50", "unit": "%"}]}, {"binder": "SEQ ID NO 34 (peptide) peptide: RSDYKDDDDKTYQSIKGPENKVKMYFLNDLNFSRRDAGFKARKDALDIASDYENISVVNIPLWGGVVQRIISSVKLSTFLCGLENKDVLIFNFPMAKPFWHILSFFHRLLKFRIVLLIDDKPCRRRPCSLTWYQLMHRYRY", "values": [{"measurement": "decrease in growth of yeast on HTU media (reverse two-hybrid)", "value": "> 50", "unit": "%"}]}, {"binder": "RSDYKDDDDKAYQSIIH", "note": "[SEQ ID NO 36]", "values": [{"measurement": "decrease in growth of yeast on HTU media (reverse two-hybrid)", "value": "> 50", "unit": "%"}]}, {"binder": "RSDYKDDDDKLINQSYAYPYIY", "note": "[SEQ ID NO 38]", "values": [{"measurement": "decrease in growth of yeast on HTU media (reverse two-hybrid)", "value": "> 50", "unit": "%"}]}, {"binder": "RSDYKDDDDKIYSSILWGTKWCVLLVITP", "note": "[SEQ ID NO 40]", "values": [{"measurement": "decrease in growth of yeast on HTU media (reverse two-hybrid)", "value": "> 50", "unit": "%"}]}, {"binder": "RSDYKDDDDKIIIYIFLNISNSIKNIFDNMGKIR", "note": "[SEQ ID NO 42]", "values": [{"measurement": "decrease in growth of yeast on HTU media (reverse two-hybrid)", "value": "> 50", "unit": "%"}]}]}
